For five substances, Ki, IC50 of inhibition of thrombin amidolytic activity (500 pM thrombin, 100 µM S-2238), preincubation 0 min and IC50 of inhibition of thrombin amidolytic activity (500 pM thrombin, 100 µM S-2238), preincubation 30 min results are on record in article PMC8772750.

The target of experiment [1] is human α-thrombin (human) (UniProt P00734). The experiment in a line: enzyme inhibition kinetics (thrombin amidolytic assay with S-2238); tight-binding assay: inhibitor incubated with 500 pM thrombin for 30 min at 37 °C, then S-2238 added to 50-500 µM; 50 mM Tris-HCl pH 8.4, 150 mM NaCl, 0.1% PEG 6000; Morrison equation for tight-binding competitive inhibitors, apparent Ki' plotted against substrate concentration to obtain Ki.

Experiment [2] has the same target.
Experiment [3] has as its target Variegin (Amblyomma variegatum) (UniProt P85800). To be noted: cited from earlier work.
For experiment [4] the target is unchanged. To be noted: cited from earlier work. This is another data set of the same source.

Like-named read-outs stand apart in the source and are kept apart here.

Turning to “recombinant haemadin from the leech Haemadipsa sylvestris (natural protein)”, the Ki in experiment [1] amounted to 0.000237 nM. In addition, in experiment [2], the IC50 of inhibition of thrombin amidolytic activity (500 pM thrombin, 100 µM S-2238), preincubation 0 min amounted to 22 pM and the IC50 of inhibition of thrombin amidolytic activity (500 pM thrombin, 100 µM S-2238), preincubation 30 min came out at 33.1 pM.

In the case of “recombinant anophelin from Anopheles albimanus (natural protein)”, the Ki in experiment [1] came out at 0.0994 nM. Further, in experiment [2], the IC50 of inhibition of thrombin amidolytic activity (500 pM thrombin, 100 µM S-2238), preincubation 0 min was found to be 6.35 nM and the IC50 of inhibition of thrombin amidolytic activity (500 pM thrombin, 100 µM S-2238), preincubation 30 min was 6.78 nM.

Regarding “recombinant hirudin-1 from Hirudo medicinalis (desirudin) (from UniProt P01050 1-65) (natural protein)”, the Ki in experiment [1] was 0.000217 nM. In addition, in experiment [2], the IC50 of inhibition of thrombin amidolytic activity (500 pM thrombin, 100 µM S-2238), preincubation 0 min was determined as 21.5 pM and the IC50 of inhibition of thrombin amidolytic activity (500 pM thrombin, 100 µM S-2238), preincubation 30 min worked out at 28 pM.

As for “recombinant variegin from the tick Amblyomma variegatum (from UniProt P85800 1-32) (peptide)”, in experiment [1], the Ki was determined as 0.372 nM. In experiment [2], the IC50 of inhibition of thrombin amidolytic activity (500 pM thrombin, 100 µM S-2238), preincubation 0 min worked out at 14.6 nM and the IC50 of inhibition of thrombin amidolytic activity (500 pM thrombin, 100 µM S-2238), preincubation 30 min came to 18.4 nM.

For the substance Thrombin (from UniProt P00734), the Ki in experiment [3] was 14 nM; in experiment [4], 0.0104 nM.
